These results are taken from publication PMC9262625, “Structural and dynamic studies of DNA recognition by NF-κB p50 RHR homodimer using methyl NMR spectroscopy”.

Holding throughout (details): protein: recombinant; tags: U-[2H,15N] or ILV methyl labeled; no tag stated; chain copies: 2
The target in data set [1] is T1, p50 RHR homodimer (mouse (murine), UniProt P25799 39-363). Kind of data set: EMSA (native gel); 20 uM, 1:1; single band; NMR: 20 mM Tris pH 6.8, 150 mM NaCl, 2 mM DTT, 300 K; native gel: 20 mM Tris pH 8.0, 10% glycerol, room temperature, 20 min.
The target in data set [2] is T1, p50 RHR homodimer. Kind of data set: NMR (13C methyl HMQC); 1:1; heterogeneous bound conformations; NMR: 20 mM Tris pH 6.8, 150 mM NaCl, 2 mM DTT, 300 K; native gel: 20 mM Tris pH 8.0, 10% glycerol, room temperature, 20 min.
Data set [3] concerns the target T1, p50 RHR homodimer. Kind of data set: NMR (13C methyl HMQC); 1:1; two conformations; NMR: 20 mM Tris pH 6.8, 150 mM NaCl, 2 mM DTT, 300 K; native gel: 20 mM Tris pH 8.0, 10% glycerol, room temperature, 20 min.
The target in data set [4] is T1, p50 RHR homodimer. Kind of data set: NMR (13C methyl HMQC); 1:1; single bound conformation, shifts differ from MHC H2; NMR: 20 mM Tris pH 6.8, 150 mM NaCl, 2 mM DTT, 300 K; native gel: 20 mM Tris pH 8.0, 10% glycerol, room temperature, 20 min.
Data set [5] addresses T1, p50 RHR homodimer. Kind of data set: NMR (13C methyl HMQC); 1:1; split peaks, at least two bound conformers; NMR: 20 mM Tris pH 6.8, 150 mM NaCl, 2 mM DTT, 300 K; native gel: 20 mM Tris pH 8.0, 10% glycerol, room temperature, 20 min.
Data set [6] has as its target T1, p50 RHR homodimer. Kind of data set: NMR (13C methyl HMQC, CPMG); 1:1; single bound conformation; NMR: 20 mM Tris pH 6.8, 150 mM NaCl, 2 mM DTT, 300 K; native gel: 20 mM Tris pH 8.0, 10% glycerol, room temperature, 20 min.

T1 sequence (P25799 39-363): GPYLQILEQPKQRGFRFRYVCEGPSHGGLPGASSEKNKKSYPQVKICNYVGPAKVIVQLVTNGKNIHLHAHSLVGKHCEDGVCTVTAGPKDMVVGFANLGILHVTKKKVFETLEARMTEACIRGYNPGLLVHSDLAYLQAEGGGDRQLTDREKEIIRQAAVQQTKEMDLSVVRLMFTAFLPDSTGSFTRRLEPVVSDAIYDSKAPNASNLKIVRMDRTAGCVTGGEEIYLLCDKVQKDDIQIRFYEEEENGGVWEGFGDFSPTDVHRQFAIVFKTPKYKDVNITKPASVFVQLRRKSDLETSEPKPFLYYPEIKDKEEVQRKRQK

B1: MHC H2 M2 (dsDNA)
DNA 1: GCTGGGGATTTCCCAGC
DNA 2: GCTGGGAAATCCCCAGC
Regarding B1, the binding result in the data set with p50 RHR homodimer [1] is “binds”.

B2: Ig-κB (dsDNA)
DNA 1: GCTGGGACTTTCCAGC
DNA 2: GCTGGAAAGTCCCAGC
Turning to B2, the binding result with p50 RHR homodimer [2] was “binds”.

B3: IFN-κB (dsDNA)
DNA 1: GCTGGGAAATTCCAGC
DNA 2: GCTGGAATTTCCCAGC
On to B3, for which the binding result with p50 RHR homodimer [2] is on record as “binds”.

B4: 4xG-10 (4G-10) (dsDNA)
DNA 1: GCTGGGGATCCCCAGC
DNA 2: GCTGGGGATCCCCAGC
In the case of B4, the binding result with p50 RHR homodimer [3] is given as “binds”.

B5: H2-κB (dsDNA)
DNA 1: GCTGGGAATCCCCAGC
DNA 2: GCTGGGGATTCCCAGC
Take B5: in the data set with p50 RHR homodimer [2], the binding result is “binds”.

B6: MHC H2 M1 (dsDNA)
DNA 1: GCTGGGAATTTCCCAGC
DNA 2: GCTGGGAAATTCCCAGC
As for B6, the binding result with p50 RHR homodimer [4] is “binds”.

B7: κB proto (dsDNA)
DNA 1: GCTGGGAATTCCCAGC
DNA 2: GCTGGGAATTCCCAGC
In the case of B7, in the data set with p50 RHR homodimer [5], the binding result was “binds”.

B8: MHC H2 (dsDNA)
DNA 1: GCTGGGGATTCCCCAGC
DNA 2: GCTGGGGAATCCCCAGC
On to B8, for which the binding result with p50 RHR homodimer [6] is “binds”.
